These results are taken from patent US20100196347A1, “BONE GRAFTS WITH REDUCED PROTEASE ACTIVITY AND METHODS OF SELECTION AND USE” (priority 2008, published 2010).

The nature of data set [1]: Binding and release of PDGF from human bone graft (salt elution; ELISA / SEC). Type of data set: physicochemical. How it is done:
FIG. 1 summarizes an exemplary protocol for studying the binding and release of PDGF from bone graft. For some experiments, the amounts were scaled down two or ten times to preserve the bone graft materials. In particular, 100 μl of human bone graft (LifeNet, Inc.) was mixed with 100 μl of PDGF at a concentration of 0.3 mg/mL in 20 mM NaOAc, pH 6.0 for ten minutes. The bone graft consisted of dry particles. The bone graft was freeze-dried before being sold (referred to as freeze-dried bone allograft, or FDBA). Then, 200 μl of NaCl (at various concentrations) in 20 mM NaOAc, pH 6.0 or phosphate buffered saline (PBS) (without NaOAc) was added. The solution was then incubated for either 1 hour or 24 hours. PDGF in solution was separated from insoluble human bone graft by centrifugation at ˜2000×g for 5 minutes at 4° C., and then the amount of rhPDGF-BB released from the matrix was determined by colorimetric ELISA Quantikine assy (R & D Systems, Minneapolis, Minn.) using plates coated with the receptor to human PDGF-BB.
In particular, PDGF (0.5 ml of 0.3 mg/ml) was incubated with the freeze-dried bone graft (˜0.5 ml) and mixed for 10 minutes, 60 minutes, or overnight at room temperature. Then 1 mL of 1 M NaCl was added as described above for FIG. 1. […] PDGF was separated from the bone graft by centrifugation at 15,334×g for 2 minutes and the supernatant containing PDGF was analyzed by SEC, RPHPLC, ELISA, and non-reducing SDS-PAGE. […] Released PDGF was measured using a standard ELISA assay. […] Briefly, a receptor for human PDGF-BB was coated onto a plate, then PDGF was bound and evaluated with a secondary antibody-HRP conjugate and the chromogen tetramethylbenzidine for detection. […] Alternatively, the concentrations of the rhPDGF-BB in supernatants were determined using the size exclusion HPLC (SEC) on TOSOH Biosep TSK-Gel, 7.8 mm×3 cm HPLC column and TOSOH Biosep TSK-Gel, 6.0 mm×4.0 cm precolumn (Tosoh Bioscience, San Francisco, Calif.) by integration of the elution profile of PDGF and using calibration at 5 different concentrations of standard PDGF as shown in FIG. 4C. […]
In general terms: In an ELISA, binding on a coated surface is turned into a signal by an enzyme label.

For a further data set, the system named is MG-63 cells. Kind of data set: MG-63 cell-based bioassay of rhPDGF eluted from FDBA. The conditions noted are these: eluted from FDBA with NaCl after ten minutes; data not shown.
The nature of data set [2]: Non-reducing SDS-PAGE of rhPDGF-BB eluted from human FDBA. Type of data set: physicochemical. The conditions noted are these: data not shown. How it is done:
In particular, PDGF (0.5 ml of 0.3 mg/ml) was incubated with the freeze-dried bone graft (˜0.5 ml) and mixed for 10 minutes, 60 minutes, or overnight at room temperature. Then 1 mL of 1 M NaCl was added as described above for FIG. 1. The final NaCl concentration was 667 mM. PDGF was separated from the bone graft by centrifugation at 15,334×g for 2 minutes and the supernatant containing PDGF was analyzed by SEC, RPHPLC, ELISA, and non-reducing SDS-PAGE. […] Released PDGF was measured using a standard ELISA assay. The ELISA assay was performed using Quantikine® Human PDGF-BB Immunoassay from R&D Systems, Inc. according to the manufacturer's protocol (see, for example, world wide web at rndsystems.com/pdf/dbb00.pdf). Briefly, a receptor for human PDGF-BB was coated onto a plate, then PDGF was bound and evaluated with a secondary antibody-HRP conjugate and the chromogen tetramethylbenzidine for detection. […] Alternatively, the concentrations of the rhPDGF-BB in supernatants were determined using the size exclusion HPLC (SEC) on TOSOH Biosep TSK-Gel, 7.8 mm×3 cm HPLC column and TOSOH Biosep TSK-Gel, 6.0 mm×4.0 cm precolumn (Tosoh Bioscience, San Francisco, Calif.) by integration of the elution profile of PDGF and using calibration at 5 different concentrations of standard PDGF as shown in FIG. 4C.

Data set [3] in a line: PDGF release from washed demineralized bone graft (ELISA). Type of data set: physicochemical. How it is done:
The washes were conducted as follows. The bone graft sample (−0.1 g) was placed in a small plastic tube and then either 1.0 ml of water, saline solution, or elution buffer was added to the sample. The mixture was allowed to sit at room temperature for 5 minutes with occasional gently mixing by hand. At the end of the 5 minutes, the fluid was pulled off the bone graft material using a pipet, and the remaining fluid was removed by compressing the material with a sterile cotton Q-tip applicator. Following this, a solution of 0.3 mg/ml rhPDGF-BB was added to the washed bone graft and samples were removed for quantification of PDGF by ELISA over 60 minutes.

For “rhPDGF-BB: recombinant human platelet-derived growth factor BB”, in data set [1] (MEM and acetic acid in place of NaCl), the “PDGF release from freeze-dried bone graft with other compounds” value is given as “release of some PDGF”. Moreover, the “PDGF released from bone graft by salt incubation” value in data set [1] (NaCl up to 1.5 M or PBS, 1 hour or 24 hours, ELISA) is on record as “significant amount of PDGF was released”. Moreover, in data set [1] (mixture of rhPDGF-BB and bone graft washed with a low ionic strength buffer), the “rhPDGF-BB bound to the bone graft matrix recovered from the bone graft” value was “less than 10%”. For the same substance, in the data set with MG-63 cells, the “biopotency compared to a control sample of rhPDGF-BB” value is “retained its biopotency”. Moreover, the “electrophoretic comparison with control rhPDGF-BB” value in data set [2] is listed as “electrophoretically indistinguishable”. Besides, the “amount of PDGF released from DM bone graft” value in data set [3] (bone graft washed 5 minutes in saline) is “More PDGF was released”; in data set [3] (bone graft washed in elution buffer), “somewhere in the middle between water and saline washes”. Moreover, the “amount of PDGF released from DM bone graft at the end of the 60 minute study” value in data set [3] (bone graft washed 5 minutes in sterile water) is recorded as “decrease”.
